From paper doi:10.1101/2022.12.22.521671 (bioRxiv, 2022)

What was measured:
Experiment in all cases: BLI
[1] = molecular target: biotinylated IQN17 (HIV-1 HXB2) (UniProt P04578)
[2] = molecular target: biotinylated IQN22 (HIV-1 HXB2) (UniProt P04578)
[3] = molecular target: T1, biotinylated IQN22 (HIV-1 HXB2 gp41 565-586 fused to …, chimera, not fully specified; biotin (position not given))
T1 chain: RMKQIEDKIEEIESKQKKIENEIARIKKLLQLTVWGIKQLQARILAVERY

[4] = molecular target: T2, biotinylated IQN17 (HIV-1 HXB2 gp41 565-581 fused to …, chimera, not fully specified; biotin (position not given))
T2 chain: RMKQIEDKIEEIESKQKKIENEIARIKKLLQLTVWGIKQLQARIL

Molecule: PIE12 (peptide)
- Kd [1]: 3 nM
- Kd [2]: 2 nM

B1: D5 Fab (Fab, V domains shown)
VH: QVQLVQSGAEVRKPGASVKVSCKASGDTFSSYAISWVRQAPGQGLEWMGGIIPIFGTANYAQAFQGRVTITANESTSTAYMELSSLRSEDTAIYYCARDNPTLLGSDYWGAGTLVTVSS
VL: DIQMTQSPSTLSASIGDRVTITCRASEGIYHWLAWYQQKPGKAPKLLIYKASSLASGAPSRFSGSGSGTDFTLTISSLQPDDFATYYCQQYSNYPLTFGGGTKLEIK
- Kd [3]: 5 nM
- Kd [4]: 14 nM
